Patent publication US20210095028A1 (NANJING LEGEND BIOTECH, published 2021)

B1: 100C4E7D11 (antibody, V domains shown)
VH: EVMLVESGGGLVKPGGSLKLSCAASGFTFSFYTMSWVRQTPEKRLEWVATISSGGGSTYYSDSVKGRFTISRDNAKNNLYLQMTSLRSEDTALYYCSRSLPVDYWGQGTTLTVSS
VL: QIVLTQSPAIMSASLGERVTMTCTASSSVSSTYLHWYQQKPGSSPKLWIYSTSNLASGVPARFSGSGSGTSYSLTISSMEAEDAATYYCHLYHHSPYTFGGGTKLEIK
notes: Mouse monoclonal antibody; also called mouse anti-human TIGIT monoclonal antibody 100C4E7D11
B2: 92E9D4B4 (antibody, V domains shown)
VH: EVMLVESGGGLVKPGGSLKLSCAASGFTFSFYTMSWVRQTPEKRLEWVATISGGGGDTYYPDNVKGRFTISRDNAKNNLYLQMSSLRSEDTALYYCARSLPVDFWGQGTTLTVSS
VL: QIVLTQSPAIMSASLGERVTMTCTASSSVSSTYLHWYQQKPGSSPKFWIYSTSNMASGVPARFSGSGSGTSYSLTISSMEAEDAATYYCHYYHRSPYTFGGGTKLEIK
notes: Mouse monoclonal antibody; also called mouse anti-human TIGIT monoclonal antibody 92E9D4B4
B3: 83G6H11C12 (antibody, V domains shown)
VH: EVMLVESGGGLVKPGGSLKLSCAASGFTFSFYTMSWVRQTPEKRLEWVATISSGGGSTYYSDSVKGRFTISRDNAKNNLYLQMTSLRSEDTALYYCSRSLPVDYWGQGTTLTVSS
VL: QIVLTQSPAIMSASLGERVTMTCTASSSVSSSYLHWYQQKPGSSPKLWIYSTSNLASGVPARFSGSGSGTSYSLTISSMEAEDAATYYCHLYHHSPYTFGGGTKLEIK
notes: Mouse monoclonal antibody; also called mouse anti-human TIGIT monoclonal antibody 83G6H11C12
B4: 128E3G7F5 (antibody, V domains shown)
VH: EVLLQQSGPELVKTGASVKISCKASGYSFTAYYMHWVKQSHGKSLEWIGYISCYNGATTYNQKFKGKATFTVDTSSTTAYMQFNSLTSEDSAVYYCARRVYYGYDEALVYWGQGTSVTVSS
VL: DIVMTQSPSSLSVSAGEKVTMTCKSSQSLLNSGNQKNYLAWYQQKPGQPPKLLIYGASTRGSGVPDRFTGSGSGTDFTLTISSVQAEDLAVYYCQNDHSYPYTFGGGTKLEIK
notes: Mouse monoclonal antibody; also called mouse anti-human TIGIT monoclonal antibody 128E3G7F5
B5: 11D8E12A4 (antibody, V domains shown)
VH: EVLLQQSGPELVKPGASVKIPCKASGYTFTDYNMDWVKQSHGKSLEWIGDINPNNGGTIYNQKFKGKATLTVDKSSSTAYMELRSLTSEDTAVYYCARRWLLLVYTMDYWGQGTSVTVSS
VL: QIVLTQSPAIMSASPGEKVTISCSASSSVSYMYWYQQKPGSSPKPWIYRTSNLASGVPARFSGSGSGTSYSLTISSMEAEDAATYYCHQYHNYPPTFGGGTKLEIK
notes: Mouse monoclonal antibody; also called mouse anti-human TIGIT monoclonal antibody 11D8E12A4
B6: 16F10H12C11 (antibody, V domains shown)
VH: EVLLQQSGPELVKPGASVKIPCKASGYTFTDYNIDWVKQSHGKSLEWIGDINPNTGGTIYNQKFKGKATLTVDKSSSTAYMELRSLTSEDTAVYYCARRWLLLVYAVDYWGQGTSVTVSS
VL: QIVLTQSPAIMSASPGEKVTISCSASSSVTYMYWYQQKAGSSPKPWIYRTSNLASGVPARFGGSGSGTSYSLTISSMEAEDAATYYCQQYHSFPPTFGGGTKLEIK
notes: Mouse monoclonal antibody; also called mouse anti-human TIGIT monoclonal antibody 16F10H12C11
B7: 48B5G4E12 (antibody, V domains shown)
VH: QVQLQQPGAELVKPGASVKMSCKASGYTFTSYNMHWVKQTPGQGLEWIGGIYPGNGATSYNQKFKGKATLTADKSSSTAYMQLSSLTSEDSAVYYCARSGLRAMDYWGQGTSVTVSS
VL: QIVLTQSPAIMSASPGEKVTMTCSASSSVSYMYWYQQKTGSSPRLLIYDTSNLASGVPVRFSGSGSGTSYSLTISRMEAEDAATYYCQQWSSYPYTFGGGTKLEIK
notes: Mouse monoclonal antibody; also called mouse anti-human TIGIT monoclonal antibody 48B5G4E12
B8: 70A11A8E6 (antibody, V domains shown)
VH: DVQLQESGPGLVKPSQSLSLTCTVTGYSITSDYAWNWIRQFPGNKLEWMGYIIYSGSTSYNPSLKSRISITRDTSKNQFFLQLNSVTTEDTATYYCARGWFRRPDYWGQGTTLTVSS
VL: DIVMTQSHEFMSTSLGDRVSITCKASQDVSTAVAWHQQKPGQSPKQLIYSASYRYTGVPDRFTGSGSGTDFTFTISNMQAEDLAVYYCQQHYSVPLTFGAGTKLELK
notes: Mouse monoclonal antibody; also called mouse anti-human TIGIT monoclonal antibody 70A11A8E6
B9: 8F2D8E7 (antibody, V domains shown)
VH: QVQLQQSGAELVKPGASVKLSCKTSGYTFTSYWIQWIKQRPGQGLGWIGEIFPGTGTTYYNEKFKGKATLTIDTSSSTAYMQLSSLTSEDSAVYSCARSRDGKVVDYWGQGTSVTVSS
VL: DVQMTQTTSSLSASLGDRVTISCRASQDISNFLNWYQQRPDGTVKLLIYYTSKLHSGVPSRFSGSGSGTDYSLTIRNLEKEDIATYFCQQGNTPPYTFGGGTKLEIK
notes: Mouse monoclonal antibody; also called mouse anti-human TIGIT monoclonal antibody 8F2D8E7
B10: 139E2C2D2 (antibody, V domains shown)
VH: EVQLVESGGDLVKPGGSLKLSCAASGFTFSSYGMSWVRQTPDKRLEWVAIISSGGNYTYYPDSVKGRFTISRDNAKNTLYLQMSSLKSEDTAMYYCARQIHYFFAMDYWGQGTSVTVSS
VL: DIQMTQSPASLSVSVGETVTITCRASENIYSNLAWYQQKQGKSPQLLVYAATNLADGAPSRFSGSRSGTQYSLKINSLQSEDFGSYYCQHFWGTAYTFGGGTKLEIK
notes: Mouse monoclonal antibody; also called mouse anti-human TIGIT monoclonal antibody 139E2C2D2

Assays:
[1] = target: T1, human TIGIT over-expressed on cells (human, UniProt Q495A1 22-244); experiment: FACS, CHO-K1 cells over-expressing human TIGIT
T1 construct: also called CHO-K1/human TIGIT cells; CHO cells expressing human TIGIT
T1 sequence: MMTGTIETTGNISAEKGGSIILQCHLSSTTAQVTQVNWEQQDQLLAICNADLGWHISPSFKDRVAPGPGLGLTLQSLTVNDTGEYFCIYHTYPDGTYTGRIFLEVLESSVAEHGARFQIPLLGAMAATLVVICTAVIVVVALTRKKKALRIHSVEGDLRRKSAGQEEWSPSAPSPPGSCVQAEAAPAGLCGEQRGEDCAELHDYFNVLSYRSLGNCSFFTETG
Method: (§1) The mixture was equilibrated for 30 minutes at room temperature and washed three times with FACS buffer (PBS containing 1% BSA). iFluor labeled goat anti-mouse IgG as the secondary antibody was added and incubated at room temperature for 45 min. Finally, the cells were washed 3 time with PBS, and the signal was read by FACS BD Calibur. Data was analyzed with PRISM™ (GraphPad Software, San Diego, Calif.) using non-linear regression and EC₅₀ values were calculated.

[2] = target: T2, cynomolgus TIGIT over-expressed on CHO-K1 cells (cynomolgus, UniProt A0A7N9I9V4 89-312); experiment: FACS, CHO-K1 cells over-expressing cynomolgus TIGIT
T2 construct: whole, on cells; also called CHO-K1/cynomolgus TIGIT cells
Method: as §1

[3] = target: T1, human TIGIT over-expressed on cells; experiment: competition FACS, CHO cells expressing human TIGIT; competitor PVR recombinant protein
Method: The mixture was equilibrated for 30 minutes at room temperature, and washed three times with FACS buffer (PBS containing 1% BSA). PE/Cy5 Streptavidin secondary antibody was then added to the mixtures and incubated for 15 minutes at room temperature. Subsequently, the cells were washed with FACS buffer and analyzed by flow cytometry. Data was analyzed with PRISM™ (GraphPad Software, San Diego, Calif.) using non-linear regression, and IC₅₀ values were calculated (FIGS. 4A-4B and Table 6).

[4] = target: T1, human TIGIT over-expressed on cells; experiment: cell-based or functional assay
[5] = target: T1, human TIGIT over-expressed on cells; experiment: cell-based or functional assay; remark: listed apart in the source
[6] = target: T3, Human TIGIT protein with HIS tag (human, UniProt Q495A1 22-141); experiment: SPR Biacore T200; antibody Fc-captured, TIGIT-His analyte
T3 construct: A soluble analyte is probably only the extracellular part; also called human TIGIT recombinant protein; not shown: HIS tag
T3 sequence: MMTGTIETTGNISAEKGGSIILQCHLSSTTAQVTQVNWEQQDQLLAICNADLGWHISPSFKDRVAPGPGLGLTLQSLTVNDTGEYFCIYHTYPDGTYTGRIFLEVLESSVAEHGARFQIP
Method: Binding kinetics of mouse anti-human TIGIT monoclonal antibodies to human TIGIT were determined using a Surface Plasmon Resonance (SPR) biosensor, BIACORE® T200 (GE Healthcare; Little Chalfont, United Kingdom). […] Each mouse anti-human TIGIT monoclonal antibody was immobilized on the sensor chip through the Fc capture method. Human TIGIT protein with HIS tag was used as the analyte. The dissociation (kd) and association (kₐ) rate constants were obtained using the BIACORE® T200 evaluation software. The apparent equilibrium dissociation constants (KD) were calculated from the ratio of kd over kₐ.

T2 sequence (A0A7N9I9V4 entry or part of it): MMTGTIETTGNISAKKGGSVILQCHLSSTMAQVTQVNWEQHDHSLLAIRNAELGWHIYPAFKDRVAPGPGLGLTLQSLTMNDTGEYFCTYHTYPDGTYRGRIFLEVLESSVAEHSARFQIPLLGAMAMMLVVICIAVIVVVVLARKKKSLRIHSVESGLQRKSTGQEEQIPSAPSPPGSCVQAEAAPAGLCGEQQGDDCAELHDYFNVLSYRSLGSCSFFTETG

Row | Binder | Bottom (best-fit) [1] | EC50 [1] | Top (best-fit) [1] | Bottom (best-fit) [2] | EC50 [2] | Top (best-fit) [2] | Bottom (best-fit) [3] | IC50 [3] | Top (best-fit) [3] | luciferase signal in T cell activation, Bottom (best-fit) [4] | luciferase signal in T cell activation, EC50 [4] | luciferase signal in T cell activation, Top (best-fit) [4] | IL-2 secretion in T cell activation, Bottom (best-fit) [5] | IL-2 secretion in T cell activation, EC50 [5] | IL-2 secretion in T cell activation, Top (best-fit) [5] | Kd [6] | koff [6] | kon [6]
1 | B1 | 14 | 0.81 nM | 107 | 16.9 | 1.16 nM | 410 | 12.9 | 1.2 nM | 66.5 | 11.6 | 3.46 nM | 117 | 107 | 0.98 nM | 191 | 0.51 nM | 0.00033 s⁻¹ | 650000 M⁻¹ s⁻¹
2 | B2 | 7.99 | 0.8 nM | 97 | 17.7 | 1.16 nM | 348 | 10.3 | 2 nM | 65.5 | 3.4 | 3.9 nM | 141 | 106 | 3.36 nM | 274 | 0.57 nM | 0.00041 s⁻¹ | 710000 M⁻¹ s⁻¹
3 | B3 | 9.57 | 0.68 nM | 115 | 16.1 | 1 nM | 326 | 12.9 | 0.7 nM | 70.2 | 9.6 | 4.4 nM | 145 | 104 | 0.83 nM | 171 | 0.7 nM | 0.00043 s⁻¹ | 610000 M⁻¹ s⁻¹
4 | B4 | 16.2 | 0.3 nM | 98.7 | 7.5 | 8.38 nM | 66.2 | 8.8 | 1.1 nM | 69.7 | 4.5 | 8.54 nM | 99 | – | – | – | 6.7 nM | 0.008 s⁻¹ | 1.2e+06 M⁻¹ s⁻¹
5 | B5 | 8.3 | 16.3 nM | 159 | – | – | – | 21.2 | 73.5 nM | 108 | – | – | – | – | – | – | 14 nM | 0.0087 s⁻¹ | 640000 M⁻¹ s⁻¹
6 | B6 | 6.83 | 11.2 nM | 188 | – | – | – | – | – | – | – | – | – | – | – | – | 18 nM | 1.2 s⁻¹ | 6.7e+07 M⁻¹ s⁻¹
7 | B7 | 9.18 | 3.15 nM | 346 | – | – | – | 64.6 | 1.6 nM | 132 | – | – | – | – | – | – | 11 nM | 0.0088 s⁻¹ | 840000 M⁻¹ s⁻¹
8 | B8 | 11 | 0.96 nM | 263 | – | – | – | 19.6 | 0.7 nM | 113 | – | – | – | – | – | – | 5.2 nM | 0.0044 s⁻¹ | 860000 M⁻¹ s⁻¹
9 | B9 | 12.9 | 1.28 nM | 276 | – | – | – | 11.2 | 0.9 nM | 131 | – | – | – | – | – | – | 2.6 nM | 0.0033 s⁻¹ | 1.3e+06 M⁻¹ s⁻¹
10 | B10 | 13.8 | 0.37 nM | 89.9 | 7.6 | 18.5 nM | 53.8 | 10.4 | 0.7 nM | 73.8 | – | – | – | – | – | – | 3 nM | 0.0062 s⁻¹ | 2.1e+06 M⁻¹ s⁻¹
